Data as given in patent publication US20230416394A1 (ELPISCIENCE SUZHOU BIOPHARMA, published 2023).
“And” between values parts separate entries of the source, which are not always exact repeats. Equal entries are not always repeated.

T1: mouse CD39 (mouse, UniProt P55772 1-510)
T1 construct: whole, on cells; also called mCD39; CHOK1-mCD39
T1 sequence (looked up): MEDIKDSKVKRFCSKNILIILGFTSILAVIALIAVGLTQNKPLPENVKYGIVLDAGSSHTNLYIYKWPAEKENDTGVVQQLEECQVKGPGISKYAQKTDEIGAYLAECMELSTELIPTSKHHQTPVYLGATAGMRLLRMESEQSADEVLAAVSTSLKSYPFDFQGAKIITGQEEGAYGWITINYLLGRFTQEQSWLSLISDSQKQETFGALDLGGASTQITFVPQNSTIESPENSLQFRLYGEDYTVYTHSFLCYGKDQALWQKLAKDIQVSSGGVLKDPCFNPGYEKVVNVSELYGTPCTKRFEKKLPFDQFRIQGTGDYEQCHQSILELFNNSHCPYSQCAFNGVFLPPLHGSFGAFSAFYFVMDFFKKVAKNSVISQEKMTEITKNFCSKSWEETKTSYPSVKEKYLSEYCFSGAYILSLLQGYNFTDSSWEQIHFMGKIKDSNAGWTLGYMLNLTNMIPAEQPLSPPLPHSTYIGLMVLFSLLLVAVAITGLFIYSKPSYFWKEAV

T2: human CD39 (human, UniProt P49961 1-510)
T2 sequence: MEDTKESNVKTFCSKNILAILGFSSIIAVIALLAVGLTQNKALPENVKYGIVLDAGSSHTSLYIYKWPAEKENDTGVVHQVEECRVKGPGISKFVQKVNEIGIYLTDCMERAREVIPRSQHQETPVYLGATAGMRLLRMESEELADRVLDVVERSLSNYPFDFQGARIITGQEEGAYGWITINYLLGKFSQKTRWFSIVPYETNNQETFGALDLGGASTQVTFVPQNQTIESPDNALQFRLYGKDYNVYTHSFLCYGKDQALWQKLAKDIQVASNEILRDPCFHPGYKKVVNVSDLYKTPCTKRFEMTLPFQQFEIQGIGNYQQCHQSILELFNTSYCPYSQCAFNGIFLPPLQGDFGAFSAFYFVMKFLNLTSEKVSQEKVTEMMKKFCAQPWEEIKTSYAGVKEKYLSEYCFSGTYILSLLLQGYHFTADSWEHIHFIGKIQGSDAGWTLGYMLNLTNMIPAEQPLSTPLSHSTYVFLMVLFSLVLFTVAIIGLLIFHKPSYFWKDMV


Experiments:
mouse CD39 = target: T1, mouse CD39; assay: FACS, CHOK1-mCD39 cells
From the text: FACS were used to determine binding of the antibodies to cell lines expressing CD39 naturally (SK-MEL-28) or recombinantly (CHOK1-hCD39, CHOK1-cynoCD39, and CHOK1-mCD39), or with cells lacking CD39 expression (CHOK1-blank) as a negative control.
CHOK1-hCD39, CHOK1-cCD39, CHOK1-mCD39 and CHOK1-blank cells were maintained in culture medium according to ATCC procedure. Cells were collected and re-suspended in blocking buffer at a density of 3×10⁶ cells/ml. […] The plates were washed with FACS buffer, and cells were re-suspended in 100 μL/well of PBS. Cells were then analyzed with FACSVerse™ and mean fluorescence intensity were determined. Full binding curves were generated on the CD39 expressing cells by testing a range of antibody concentrations. Apparent affinity was determined for each antibody using Prism software.

human CD39 = target: T2, human CD39; assay: cell-based or functional assay

binding result (mouse CD39)	ATPase inhibition on SK-MEL-28 cells, IC50 (human CD39)	Binder
no binding (tested: 30 µg/ml)		mAb14 (antibody, V domains shown, mouse hybridoma antibody) VH: EVKLEESGGGLVQPGGSMKLSCVASGFTFSKYWMNWVRQSPEKGLEWVAEIRLKSNKYGTHYAESVKGRFTISRDDSKNNVYLQMNNLRPEDTGIYYCTTQLDLYWFFDVWGAGTTVTVSS VL: DIVMTQSPAILSVTPGDRVSLSCRASQSISDYLHWYQQKSHESPRLLIKYASQSISGIPSRFSGSGSGSNFTLSINSVEPEDVGVYFCQNGHSLPLTFGAGTKLELR
	0.158 nM and 0.209 nM	c23 (antibody, V domains shown) VH: EVQLQQSGAELLRPGASVKLSCTASGYNLKDTFLHWVKQRPEQGLEWIGRIDPANGNIKYDPKFQGKATLTADTSSNTAYLQLISLTSEDTAVYYCANSPYYYGSGYRIFDVWGAGTTVTVSS VL: QIVLTQSPAIMSASPGEKVTITCSAFSSVNYMHWYQQKPGTSPKLLIYTTSNLASGVPTRFSGSGSGTSYSLTISRMEAEDAATYYCQQRSTYPFTFGSGTKLEIQ
no binding (tested: 30 µg/ml)		mAb23 (antibody, V domains shown, mouse hybridoma antibody) VH: EVQLQQSGAELLRPGASVKLSCTASGYNLKDTFLHWVKQRPEQGLEWIGRIDPANGNIKYDPKFQGKATLTADTSSNTAYLQLISLTSEDTAVYYCANSPYYYGSGYRIFDVWGAGTTVTVSS VL: QIVLTQSPAIMSASPGEKVTITCSAFSSVNYMHWYQQKPGTSPKLLIYTTSNLASGVPTRFSGSGSGTSYSLTISRMEAEDAATYYCQQRSTYPFTFGSGTKLEIQ
no binding (tested: 30 µg/ml)		mAb21 (antibody, V domains shown, mouse hybridoma antibody) VH: EVKLEKSGGGLVQPGGSMKLSCVASGFTFSNYWMNWVRQSPEKGLEWVAQIRLNPDNYATHFAESVKGRFTISRDDSKNSVYLQMNSLRAEDTGIYYCTEHGTRGFAYWGQGTLVTVSE VL: not shown
no binding (tested: 30 µg/ml)		mAb13 (antibody, V domains shown, mouse hybridoma antibody) VH: QIQLVQSGPELKKPGETVKISCKASGYTFTNYGMNWVKQAPGKGLRWMGLINTYTGEPTYADDFKDRFAFSLETSASTAFLQINNLKDEDMATYFCARKGIYYDYVWFFDVWGAGTTVTVSS VL: DIQMTQSPSSLSTSLGGKVSITCKASQDINRYIAWYQHKPGKGPRLLIHYTSTLLPGIPSRFSGSGSGRDYSFSISNLEPEDIATYFCLQYSNLLTFGGGTKLEIK
	0.264 nM	hu23.201 (antibody, V domains shown) VH: QVQLVQSGAEVKKPGASVKVSCKASGYTLKDTFLHWVRQAPGQRLEWMGRIDPANGNIKYDPKFQGRVTLTADTSSNTAYMELSSLRSEDTAVYYCANSPYYYGSGYRIFDVWGQGTLVTVSS VL: EIVLTQSPATLSLSPGERATLSCSAFSSVNYMHWYQQKPGQSPRLLIYTTSNLASGIPARFSGSGSGTDYTLTISSLEPEDFAVYYCQQRSTYPFTFGQGTKLEIK
	0.121 nM	hu23.H7L6 (antibody, V domains shown) VH: EVQLVQSGAEVKKPGASVKLSCKASGYNLKDTFLHWVKQAPGQGLEWIGRIDPANGNIKYDPKFQGKATLTADTSANTAYLELISLRSEDTAVYYCANSPYYYGSGYRIFDVWGQGTTVTVSS VL: QIVLTQSPATLSASPGERATLSCSAFSSVNYMHWYQQKPGQAPKLLIYTTSNLASGVPTRFSGSGSGTSYTLTISSMEPEDFAVYYCQQRSTYPFTFGQGTKLEIK
	0.964 nM	hu23.H1L2 (antibody, V domains shown) VH: QVQLVQSGAEVKKPGASVKVSCKASGYNLKDTFLHWVRQAPGQRLEWMGRIDPANGNIKYDPKFQGRVTITRDTSASTAYMELSSLRSEDTAVYYCARSPYYYGSGYRIFDVWGQGTTVTVSS VL: EIVLTQSPATLSLSPGERATLSCSAFSSVNYMHWYQQKPGQAPRLLIYTTSNLASGIPARFSGSGSGTDYTLTISSLEPEDFAVYYCQQRSTYPFTFGQGTKLEIK
	0.59 nM	hu23.H1L4 (antibody, V domains shown) VH: QVQLVQSGAEVKKPGASVKVSCKASGYNLKDTFLHWVRQAPGQRLEWMGRIDPANGNIKYDPKFQGRVTITRDTSASTAYMELSSLRSEDTAVYYCARSPYYYGSGYRIFDVWGQGTTVTVSS VL: EIVLTQSPATLSASPGERVTISCSAFSSVNYMHWYQQKPGQAPRLLIYTTSNLASGIPARFSGSGSGTDYTLTISSMEPEDFAVYYCQQRSTYPFTFGQGTKLEIK
	0.767 nM	hu23.H2L2 (antibody, V domains shown) VH: QVQLVQSGAEVKKPGASVKVSCKASGYNLKDTFLHWVRQAPGQGLEWMGRIDPANGNIKYDPKFQGRVTITADTSASTAYMELSSLRSEDTAVYYCANSPYYYGSGYRIFDVWGQGTTVTVSS VL: EIVLTQSPATLSLSPGERATLSCSAFSSVNYMHWYQQKPGQAPRLLIYTTSNLASGIPARFSGSGSGTDYTLTISSLEPEDFAVYYCQQRSTYPFTFGQGTKLEIK
	0.13 nM	hu23.H5L6 (antibody, V domains shown) VH: QVQLVQSGAEVKKPGASVKVSCKASGYNLKDTFLHWVRQAPGQGLEWMGRIDPANGNIKYDPKFQGRVTITADTSANTAYMELISLRSEDTAVYYCANSPYYYGSGYRIFDVWGQGTTVTVSS VL: QIVLTQSPATLSASPGERATLSCSAFSSVNYMHWYQQKPGQAPKLLIYTTSNLASGVPTRFSGSGSGTSYTLTISSMEPEDFAVYYCQQRSTYPFTFGQGTKLEIK
	0.487 nM	hu23.H4L4 (antibody, V domains shown) VH: QVQLVQSGAEVKKPGASVKLSCKASGYNLKDTFLHWVKQAPGQGLEWIGRIDPANGNIKYDPKFQGRATLTADTSASTAYLELSSLRSEDTAVYYCANSPYYYGSGYRIFDVWGQGTTVTVSS VL: EIVLTQSPATLSASPGERVTISCSAFSSVNYMHWYQQKPGQAPRLLIYTTSNLASGIPARFSGSGSGTDYTLTISSMEPEDFAVYYCQQRSTYPFTFGQGTKLEIK
	0.147 nM	hu23.H7L1 (antibody, V domains shown) VH: EVQLVQSGAEVKKPGASVKLSCKASGYNLKDTFLHWVKQAPGQGLEWIGRIDPANGNIKYDPKFQGKATLTADTSANTAYLELISLRSEDTAVYYCANSPYYYGSGYRIFDVWGQGTTVTVSS VL: EIVLTQSPATLSLSPGERATLSCSAFSSVNYMHWYQQKPGQAPRLLIYTTSNLASGIPARFSGSGSGTDFTLTISSLEPEDFAVYYCQQRSTYPFTFGQGTKLEIK
	0.144 nM	hu23.H7L5 (antibody, V domains shown) VH: EVQLVQSGAEVKKPGASVKLSCKASGYNLKDTFLHWVKQAPGQGLEWIGRIDPANGNIKYDPKFQGKATLTADTSANTAYLELISLRSEDTAVYYCANSPYYYGSGYRIFDVWGQGTTVTVSS VL: QIVLTQSPATLSLSPGERATLSCSAFSSVNYMHWYQQKPGQAPRLLIYTTSNLASGIPTRFSGSGSGTSYTLTISSLEPEDFAVYYCQQRSTYPFTFGQGTKLEIK
	0.32 nM	hu23.203 (antibody, V domains shown) VH: QVQLVQSGAEVKKPGASVKVSCKASGYTLKDTFLHWVRQAPGQRLEWMGRIDPANGNIKYDPKFQGRVTLTADTSSNTAYMELSSLRSEDTAVYYCANSPYYYGSGYRIFDVWGQGTLVTVSS VL: EIVLTQSPATLTLSPGERATLSCSAFSSVNYMHWYQQKPGQAPRLLIYTTSNLASGIPARFSGSGSGTDYTLTISSLEPEDFAVYYCQQRSTYPFTFGQGTKLEIK
	0.386 nM	hu23.211 (antibody, V domains shown) VH: EVQLVQSGAEVKKPGASVKVSCKASGYTLKDTFLHWVRQAPGQRLEWMGRIDPANGNIKYDPKFQGRVTITADTSSNTAYMELSSLRSEDTAVYYCANSPYYYGSGYRIFDVWGQGTLVTVSS VL: EIVLTQSPATLSLSPGERATLSCSAFSSVNYMHWYQQKPGQAPRLLIYTTSNLASGIPARFSGSGSGTDYTLTISSLEPEDFAVYYCQQRSTYPFTFGQGTKLEIK
no binding (tested: 30 µg/ml)		mAb19 (antibody, V domains shown, mouse hybridoma antibody) VH: EVKLEKSGGGLVQPGGSMKLSCVASGFTFSNYWMNWVRQSPEKGLEWVAQIRLNPDNYATHYAESVKGRFTISRDDYKNSVYLQMSSLRAEDSGIYYCTQHGSRGFAYWGQGTLVTVS VL: not shown
